Experimental data from publication PMC5096451.

Target: RhoA (UniProt P61586)
Sequence (P61586 whole entry): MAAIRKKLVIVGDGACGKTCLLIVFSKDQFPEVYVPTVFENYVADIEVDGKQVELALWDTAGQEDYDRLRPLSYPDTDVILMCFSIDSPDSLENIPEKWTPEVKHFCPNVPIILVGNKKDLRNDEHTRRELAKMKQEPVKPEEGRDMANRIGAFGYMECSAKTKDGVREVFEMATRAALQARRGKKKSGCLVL

Sequence of SseJ (Q9FD10 whole entry): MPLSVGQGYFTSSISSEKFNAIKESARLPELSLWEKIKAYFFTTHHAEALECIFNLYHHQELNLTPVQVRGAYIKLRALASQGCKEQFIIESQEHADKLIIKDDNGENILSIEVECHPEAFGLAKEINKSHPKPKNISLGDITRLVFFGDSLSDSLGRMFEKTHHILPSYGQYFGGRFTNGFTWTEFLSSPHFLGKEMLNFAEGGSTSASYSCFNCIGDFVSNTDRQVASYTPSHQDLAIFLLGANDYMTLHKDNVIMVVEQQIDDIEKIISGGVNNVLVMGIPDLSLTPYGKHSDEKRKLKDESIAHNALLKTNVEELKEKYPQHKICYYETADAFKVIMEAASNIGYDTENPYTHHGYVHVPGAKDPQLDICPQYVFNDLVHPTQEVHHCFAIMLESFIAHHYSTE

SseJ (from UniProt Q9FD10 1-408) (enzyme)
SseJ lipase stimulation (PNPP), 200 nM SseJ and 200 nM RhoA-GDP: 0.21 mAU/min
SseJ lipase stimulation (PNPP), 200 nM SseJ and 200 nM RhoA-GTPγS: 1.2 mAU/min
